The results in this text go back to patent US11629193B2, “EGFR binding molecules” (F-STAR BETA LIMITED, priority 2016, dated 2023).

The target of one test is T1, HGF (Homo sapiens, UniProt P14210).
T1 construct: examined in U87MG cells that secrete HGF; endogenous in cells; host or cells: U87MG
Put plainly: Free HGF in culture media of U87MG cells (HGF Human ELISA Kit). The format is cell-based. The following applies: 30 nM, 4 days, compared to controls. As to the method:
It was hypothesised that internalisation of HGF by anti-EGFR/HGF mAb^2 leads to reduced level of HGF in the system. To test this hypothesis, the change in level of free HGF caused by incubation with anti-EGFR/HGF mAb^2 was examined in U87MG cells that secrete HGF. U87MG cultures were incubated with different treatments at 30 nM for 4 days at 37° C. […] On day 4, the media from each cell culture were collected for HGF level analysis. HGF concentration was measured using HGF Human ELISA Kit (ThermoFisher, KAC2211) following the manufacturer's protocol. Using monoclonal anti-HGF antibodies, the free HGF in media was detected (free HGF was defined as HGF in the media which was bound by detection antibodies).
(In general: ELISA stands for enzyme-linked immunosorbent assay.)

A further test concerns NCI-H596 cells. Put plainly: Cell proliferation, NCI-H596 cells stimulated with EGF and HGF. It counts as cell-based. The following applies: NCI-H596, 10-1000 nM, 2 ng/ml EGF and 12 ng/ml HGF, 3 days. As to the method: NCI-H596 (ATCC HTB-178) is a lung adenosquamous cancer cell line that engages both the EGF and HGF signalling pathways and was used to investigate the ability of mAb^2 molecules to block proliferation. The same method was used as in the U87MG assay described above, except that the NCI-H596 cells were stimulated with both EGF and HGF ligands. One day before the treatment, the level of FBS used in the media was reduced from 10% to 1%. The next day treatments were added at various concentrations (10-1000 nM) in the presence of 2 ng/ml EGF (R&D systems, 236-EG) and 12 ng/ml HGF (PeproTech, 100-39) and incubated for 3 days at 37° C. Controls of HGF+EGF, EGF only, HGF only and no ligand stimulation were also included.

Test [1] has as its system phosphorylation of c-Met and EGFR. The experiment in a line: Western blot of receptor phosphorylation in U87MG cells. It counts as cell-based, human. The following applies: 200 nM, 20 min. As to the method:
(§1) Overnight cultures of the glioblastoma cell line U87MG (ATCC HTB-14) were moved from a medium with 10% FBS to a low serum medium with 0.1% FBS to optimise sensitivity to ligand stimulation. The cells were incubated overnight. […] Controls without antibody treatment were included, with and without growth factor stimulation. The treated cells were lysed using lysis buffer (10 mM Tris® pH7.5, 150 mM NaCl, 1 mM EDTA) comprising 1:100 protease inhibitor cocktail (Calbiochem, 539131) and 1:100 Phosphatase inhibitor cocktail (Calbiochem, 524625) and the lysates collected for analysis.
(§2) Lysate samples were subjected to standard western blotting analysis using a 4-12% Bis-Tris® protein gel (ThermoFisher, NP0322BOX) and transferred to a nitrocellulose membrane (ThermoFisher, IB301001). The membrane was blocked with 5% Marvel milk/TBST and then probed for phospho-c-Met using a rabbit monoclonal antibody specific for c-Met phosphorylated at Tyr1234/1235 (Cell Signaling, 3077), phospho-EGFR using a mouse monoclonal antibody specific for EGFR phosphorylated at Tyr1068 (Cell Signaling, 2236), phospho-MAPK using a mouse monoclonal antibody specific for p44/42 MAPK (ERK1/2) phosphorylated at Thr202/Tyr204 (Cell Signaling, 9106), and phospho-Akt using a rabbit monoclonal antibody specific for Akt phosphorylated at Ser473 (Cell Signaling, 9271). […]
(In general: A western blot detects proteins with antibodies after separation by electrophoresis.)

In the next test the test system is NCI-H1975 cells. The experiment in a line: Cell proliferation, NCI-H1975 cells stimulated with HGF. The format is cell-based. As to the method: NCI-H1975 (ATCC CRL-5908) is a non-small cell lung cancer (NSCLC) cell line which expresses constitutively active mutated EGFR L858R and EGFR T790M (Kobayashi et al 2005). These mutations are acquired secondary mutations known to confer resistance to EGFR tyrosine kinase inhibitor (TKI) therapies in NSCLC patients. The NCI-H1975 cell line also expresses c-Met. […] The same method was used as in the U87MG assay described above, except that the NCI-H1975 cells were stimulated with HGF. One day before the treatment, the medium used was changed from containing 10% FBS to containing no serum. Treatments were added at various concentrations (0.003-300 nM) in the presence of 80 ng/ml HGF and incubated for 3 days at 37° C.

For test [2], the system named is phosphorylation of MAPK and Akt. The experiment in a line: Western blot of downstream signalling in U87MG cells. The following applies: 200 nM (200+200 nM for combination), HGF and EGF present. It counts as cell-based, human. As to the method: as §1, §2
The test system of a further test is KP4 cells. Put plainly: Cell proliferation, KP4 cells (WST-1). It counts as cell-based. The following applies: KP4, 0.003-300 nM, 3 days. As to the method: KP4 (Riken RCB1005) is a pancreatic ductal cell carcinoma which has autocrine production of HGF. […] After 3 days, cells were analysed using cell proliferation reagent WST-1 (Roche) to determine the number of viable cells as described in the manufacturer's protocol. The stable tetrazolium salt WST-1 is cleaved to a soluble formazan by the glycolytic production of NAD(P)H in viable cells. The amount of formazan dye formed is quantitated at absorbances 450 nm and 630 nm.

A further test addresses T2, HER3 (Homo sapiens, UniProt P21860).
T2 construct: purchased Sino Biological 10201-H08H
The experiment in a line: ELISA for specific binding within the HER receptor family. The following applies: 1 μM, antigen coated at 1 μg/ml. As to the method: Antigens including EGFR (produced in house), HER2 His Tag (Sino Biological, 10004-H08H), HER3 His Tag (Sino Biological, 10201-H08H) and HER4 His Tag (Sino Biological, 10363-H08H) were biotinylated using the Lightning-Link™ Biotin kit (Innova Biosciences, 704-0030) following the supplier's protocol. The biotinylated antigens were coated in different wells on MaxiSorp™ plate (Nunc) at 1 μg/ml in PBS overnight at 4° C. and excess unbound antigens were washed off with PBS. The antigen-coated plate was blocked with 1% TWEEN® in PBS (PBST) for 1 hour at room temperature. After removing PBST, the anti-EGFR Fcabs (1 μM) and relevant positive and IgG negative antibody controls (1 μM) in 0.1% PBST were incubated for 1 hour to bind the coated antigens followed by washing. The bound Fcabs or antibodies were detected by Protein A-HRP (ThermoFisher 101023) or anti-mouse IgG-horseradish peroxidase (HRP) (Sigma A9044) for the HER4 positive control. Tetramethylbenzidine (TMB) (eBioscience 00-4201-56) was used as the substrate to interact with HRP enzyme for colorimetric detection. 1 M Sulphuric acid was added to stop the enzyme-substrate reaction. The plate was read at an absorbance of 450 nm subtracted by 630 nm as background.

Entries after “also recorded” stand apart in the source; their conditions may differ.

T1 sequence (P14210 32-728): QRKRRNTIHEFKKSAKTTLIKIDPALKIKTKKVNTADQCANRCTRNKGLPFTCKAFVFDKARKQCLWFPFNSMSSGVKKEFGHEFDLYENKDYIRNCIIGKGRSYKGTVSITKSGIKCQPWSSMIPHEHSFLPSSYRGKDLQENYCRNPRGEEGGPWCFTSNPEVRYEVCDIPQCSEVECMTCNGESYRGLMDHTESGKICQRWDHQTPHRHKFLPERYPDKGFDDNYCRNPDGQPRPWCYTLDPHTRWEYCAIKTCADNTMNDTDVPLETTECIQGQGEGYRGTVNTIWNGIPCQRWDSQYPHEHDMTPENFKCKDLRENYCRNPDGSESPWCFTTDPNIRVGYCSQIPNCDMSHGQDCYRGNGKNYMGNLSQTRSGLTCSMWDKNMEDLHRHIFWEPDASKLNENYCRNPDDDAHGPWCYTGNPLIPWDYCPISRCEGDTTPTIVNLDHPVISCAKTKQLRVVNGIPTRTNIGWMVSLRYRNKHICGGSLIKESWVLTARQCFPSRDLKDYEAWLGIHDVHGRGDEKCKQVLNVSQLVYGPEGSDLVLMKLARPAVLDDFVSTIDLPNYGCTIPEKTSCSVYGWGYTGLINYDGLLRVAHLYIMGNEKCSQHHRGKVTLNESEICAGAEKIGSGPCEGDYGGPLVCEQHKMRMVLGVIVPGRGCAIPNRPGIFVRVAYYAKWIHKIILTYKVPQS

B1: ficlatuzumab (antibody, V domains shown)
VH: QVQLVQPGAEVKKPGTSVKLSCKASGYTFTTYWMHWVRQAPGQGLEWIGEINPTNGHTNYNQKFQGRATLTVDKSTSTAYMELSSLRSEDTAVYYCARNYVGSIFDYWGQGTLLTVSS
VL: DIVMTQSPDSLAMSLGERVTLNCKASENVVSYVSWYQQKPGQSPKLLIYGASNRESGVPDRFSGSGSATDFTLTISSVQAEDVADYHCGQSYNYPYTFGQGTKLEIKR
modifications: FI VH domain; FI VL domain
As to B1, in the test with HGF, the “concentration of free HGF in the media” value was “significant decrease in the concentration of free HGF in the media”. Besides, the “inhibition of cell proliferation induced by HGF and EGF” value in the test on NCI-H596 cells is “unable to block stimulation when both ligands were present”. Also, the “block of phosphorylation of c-Met by HGF” value in test [1] is on record as “able to block the phosphorylation of c-Met by HGF”. For the same molecule, the “reduction of cell proliferation induced by HGF” value was “did not” in the test on NCI-H1975 cells (NCI-H1975, 0.003-300 nM, 80 ng/ml HGF, 3 days); “No effect” in the test with NCI-H1975 cells (NCI-H1975, antibodies 300 nM with and without erlotinib (2 μM)). For the same molecule, the “block of phosphorylation of MAPK and Akt” value in test [2] is “unable to block the phosphorylation of MAPK and Akt”. The “reduction in cell proliferation (WST-1)” value in the test on KP4 cells is given as “concentration-dependent reduction in cell proliferation; also recorded: inhibited cell proliferation, but to a lesser extent”.

B2: MM121: antibody MM121 (Merrimack), positive control for HER3 (antibody, chains of the INN, looked up)
heavy: EVQLLESGGGLVQPGGSLRLSCAASGFTFSHYVMAWVRQAPGKGLEWVSSISSSGGWTLYADSVKGRFTISRDNSKNTLYLQMNSLRAEDTAVYYCTRGLKMATIFDYWGQGTLVTVSSASTKGPSVFPLAPCSRSTSESTAALGCLVKDYFPEPVTVSWNSGALTSGVHTFPAVLQSSGLYSLSSVVTVPSSNFGTQTYTCNVDHKPSNTKVDKTVERKCCVECPPCPAPPVAGPSVFLFPPKPKDTLMISRTPEVTCVVVDVSHEDPEVQFNWYVDGVEVHNAKTKPREEQFNSTFRVVSVLTVVHQDWLNGKEYKCKVSNKGLPAPIEKTISKTKGQPREPQVYTLPPSREEMTKNQVSLTCLVKGFYPSDIAVEWESNGQPENNYKTTPPMLDSDGSFFLYSKLTVDKSRWQQGNVFSCSVMHEALHNHYTQKSLSLSPG
light: QSALTQPASVSGSPGQSITISCTGTSSDVGSYNVVSWYQQHPGKAPKLIIYEVSQRPSGVSNRFSGSKSGNTASLTISGLQTEDEADYYCCSYAGSSIFVIFGGGTKVTVLGQPKAAPSVTLFPPSSEELQANKATLVCLVSDFYPGAVTVAWKADGSPVKVGVETTKPSKQSNNKYAASSYLSLTPEQWKSHRSYSCRVTHEGSTVEKTVAPAECS
In the case of B2, in the test with HER3, the “binding to HER3” value is recorded as “bound to their corresponding antigens”.
